Measured values taken from patent US20160264649A1.

What was measured:
Test in all cases: cell-based or functional assay
aMLV envelope = biological target: aMLV envelope
[1] = biological target: HIV-1 MGRM-G-011 Env (HIV-1)
[2] = biological target: HIV-1 MGRM-Chronic-B-018 Env on pseudovirus (HIV-1)
HIV-1 APV-17 Env (HIV-1) = biological target: HIV-1 APV-17 Env (HIV-1)
[3] = biological target: HIV-1 MGRM-Chronic-B-001 Env on pseudovirus (HIV-1)
[4] = biological target: HIV-1 MGRM-C-019 Env on pseudovirus (HIV-1)
[5] = biological target: HIV-1 MGRM-AG-002 Env (HIV-1)
[6] = biological target: HIV-1 APV_13 Env on pseudovirus (HIV-1)
[7] = biological target: HIV-1 MGRM-F1-012 Env (HIV-1)
[8] = biological target: HIV-1 IAVI-C18 Env (HIV-1)
[9] = biological target: HIV-1 MGRM-G-015 Env (HIV-1)
[10] = biological target: HIV-1 MGRM-G-025 Env (HIV-1)
[11] = biological target: HIV-1 MGRM-C-012 Env on pseudovirus (HIV-1)
[12] = biological target: HIV-1 MGRM-AG-001 Env (HIV-1)
[13] = biological target: HIV-1 MGRM-AG-006 Env (HIV-1)
[14] = biological target: HIV-1 MGRM-F1-008 Env (HIV-1)
[15] = biological target: HIV-1 THR0.18 (Acute) Env on pseudovirus (HIV-1)
[16] = biological target: HIV-1 MGRM-F1-010 Env (HIV-1)
[17] = biological target: HIV-1 MGRM-D-012 Env (HIV-1)
[18] = biological target: HIV-1 MGRM-F1-018 Env (HIV-1)
[19] = biological target: HIV-1 92UG046 Env (HIV-1)
[20] = biological target: HIV-1 MGRM-C-008 Env on pseudovirus (HIV-1)
[21] = biological target: HIV-1 MGRM-G-027 Env (HIV-1)
[22] = biological target: HIV-1 MGRM-C-023 Env on pseudovirus (HIV-1)
[23] = biological target: HIV-1 IAVI-C22 Env (HIV-1)
[24] = biological target: HIV-1 MGRM-AE-005 Env (HIV-1)
[25] = biological target: HIV-1 MGRM-G-013 Env (HIV-1)
[26] = biological target: HIV-1 MGRM-C-024 Env on pseudovirus (HIV-1)
[27] = biological target: HIV-1 MGRM-D-004 Env (HIV-1)
[28] = biological target: HIV-1 MGRM-AG-011 Env (HIV-1)
[29] = biological target: HIV-1 97ZA012 Env on pseudovirus (HIV-1)
[30] = biological target: HIV-1 MGRM-Chronic-B-023 Env on pseudovirus (HIV-1)
[31] = biological target: HIV-1 MGRM-D-016 Env (HIV-1)
[32] = biological target: HIV-1 93IN905 Env (HIV-1)
[33] = biological target: HIV-1 94UG114 Env (HIV-1)
[34] = biological target: HIV-1 MGRM-C-020 Env on pseudovirus (HIV-1)
[35] = biological target: HIV-1 MGRM-F1-006 Env (HIV-1)
[36] = biological target: HIV-1 MGRM-AE-007 Env (HIV-1)
[37] = biological target: HIV-1 MGRM-C-014 Env on pseudovirus (HIV-1)
[38] = biological target: HIV-1 MGRM-G-009 Env (HIV-1)
[39] = biological target: HIV-1 LAVI_C22 Env on pseudovirus (HIV-1)
[40] = biological target: HIV-1 MGRM-C-022 Env on pseudovirus (HIV-1)
[41] = biological target: HIV-1 SC422661.8 (Acute) Env on pseudovirus (HIV-1)
[42] = biological target: HIV-1 MGRM-G-014 Env (HIV-1)
[43] = biological target: HIV-1 PVO.4 (Acute) Env on pseudovirus (HIV-1)
[44] = biological target: HIV-1 MGRM-D-026 Env (HIV-1)
[45] = biological target: HIV-1 MGRM-C-001 Env on pseudovirus (HIV-1)
[46] = biological target: HIV-1 MGRM-Chronic-B-012 Env on pseudovirus (HIV-1)
[47] = biological target: HIV-1 98CN006 Env on pseudovirus (HIV-1)
[48] = biological target: HIV-1 MGRM-AE-003 Env (HIV-1)
[49] = biological target: HIV-1 MGRM-D-024 Env (HIV-1)
[50] = biological target: HIV-1 MGRM-C-007 Env on pseudovirus (HIV-1)

Chain of 1443_C16 (PG16) (TCN-116) (antibody) (VH): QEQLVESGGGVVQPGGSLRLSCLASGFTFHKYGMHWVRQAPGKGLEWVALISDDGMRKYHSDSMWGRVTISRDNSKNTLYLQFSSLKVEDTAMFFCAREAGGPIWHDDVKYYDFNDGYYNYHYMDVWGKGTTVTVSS
Chain of 1443_C16 (PG16) (TCN-116) (antibody) (VL): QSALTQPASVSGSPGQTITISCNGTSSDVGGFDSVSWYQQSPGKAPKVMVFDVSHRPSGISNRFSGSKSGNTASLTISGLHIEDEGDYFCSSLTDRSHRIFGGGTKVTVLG

1443_C16 (PG16) (TCN-116) (antibody)
neutralization IC50 (aMLV envelope): > 50 µg/mL | neutralization IC90 (aMLV envelope): > 50 µg/mL | IC50 (µg/ml), pseudovirus neutralization [1]: 0.04 µg/mL | IC50 [2]: 0.7 µg/mL | neutralization IC50 (HIV-1 APV-17 Env (HIV-1)): > 50 µg/mL | neutralization IC90 (HIV-1 APV-17 Env (HIV-1)): > 50 µg/mL | IC50 [3]: > 50 µg/mL | IC50 [4]: 0.002 µg/mL | IC50 (µg/ml), pseudovirus neutralization [5]: 0.03 µg/mL | IC50 [6]: > 50 µg/mL | IC50 (pseudovirus neutralization) [7]: 0.003 µg/mL | neutralization IC50 [8]: 0.0067 µg/mL | neutralization IC90 [8]: 0.207 µg/mL | IC50 (µg/ml), pseudovirus neutralization [9]: 5.33 µg/mL | IC50 (µg/ml), pseudovirus neutralization [10]: > 50 µg/mL | IC50 [11]: 0.48 µg/mL | IC50 (µg/ml), pseudovirus neutralization [12]: 0.03 µg/mL | IC50 (µg/ml), pseudovirus neutralization [13]: > 50 µg/mL | IC50 (pseudovirus neutralization) [14]: > 50 µg/mL | IC50 [15]: 1.34 µg/mL | IC50 (pseudovirus neutralization) [16]: 0.01 µg/mL | IC50 (µg/ml), pseudovirus neutralization [17]: 0.35 µg/mL | IC50 (pseudovirus neutralization) [18]: 0.01 µg/mL | IC50 (µg/ml), pseudovirus neutralization [19]: 1.42 µg/mL | IC50 [20]: > 50 µg/mL | IC50 (µg/ml), pseudovirus neutralization [21]: 0.01 µg/mL | IC50 [22]: 0.09 µg/mL | neutralization IC50 [23]: 0.0687 µg/mL | neutralization IC90 [23]: > 50 µg/mL | IC50 (µg/ml), pseudovirus neutralization [24]: 0.02 µg/mL | IC50 (µg/ml), pseudovirus neutralization [25]: > 50 µg/mL | IC50 [26]: 0.04 µg/mL | IC50 (µg/ml), pseudovirus neutralization [27]: 0.01 µg/mL | IC50 (µg/ml), pseudovirus neutralization [28]: 0.002 µg/mL | IC50 [29]: 2.55 µg/mL | IC50 [30]: 0.13 µg/mL | IC50 (µg/ml), pseudovirus neutralization [31]: 0.02 µg/mL | neutralization IC50 [32]: 0.102 µg/mL | neutralization IC90 [32]: > 50 µg/mL | IC50 (µg/ml), pseudovirus neutralization [33]: > 50 µg/mL | IC50 [34]: > 50 µg/mL | IC50 (pseudovirus neutralization) [35]: 0.27 µg/mL | IC50 (µg/ml), pseudovirus neutralization [36]: 0.04 µg/mL | IC50 [37]: > 50 µg/mL | IC50 (µg/ml), pseudovirus neutralization [38]: > 50 µg/mL | IC50 [39]: 0.02 µg/mL | IC50 [40]: 0.25 µg/mL | IC50 [41]: 1.13 µg/mL | IC50 (µg/ml), pseudovirus neutralization [42]: 6.98 µg/mL | IC50 [43]: 5.43 µg/mL | IC50 (µg/ml), pseudovirus neutralization [44]: > 50 µg/mL | IC50 [45]: 16.8 µg/mL | IC50 [46]: 3.74 µg/mL | IC50 [47]: > 50 µg/mL | IC50 (µg/ml), pseudovirus neutralization [48]: 0.03 µg/mL | IC50 (µg/ml), pseudovirus neutralization [49]: 0.02 µg/mL | IC50 [50]: 0.05 µg/mL
